Measurements from patent US7892767B2, “Phosphospecific chemokine receptor antibodies” (Washington University in St. Louis, priority 2005, dated 2011).

Legend:
[1] = tested on: PDE4A-expressing U87 cells; experiment: Viable cell number, PDE4A-expressing U87 cells; assay type: cell-based, human; conditions: CXCL12 1 μg/ml, AMD 3465 2.5 μg/ml, Rolipram 200 μM
Description: PDE4A expression. U87 and Daoy cells (15,000 cells) were transiently transfected for 48 h with a plasmid encoding a transgene for the tet-off transactivator (tTA) alone (kind gift from Dr. Louis Muglia, Washington University School of Medicine, St. Louis, Mo.), a plasmid containing a transgene for tet-off regulated expression of phosphodiesterase 4A (PDE4A) alone (kind gift from Dr. James Cherry, Boston University, Boston, Mass.), or a combination of both plasmids, using lipofectamine (Invitrogen) according to the manufacturer's instructions. Plasmid DNA (2 μg) was mixed with lipofectamine (5 μl) per 35 mm^2 dish. Transfection proceeded for 9 hours prior to exchanging transfection media for αMEM supplemented with 10% FCS.

CXCR4 = CXCR4 (Homo sapiens, UniProt P61073); experiment: Stimulated CXCR4 phosphorylation in LN428 GBM cells (western blot); assay type: cell-based; set-up: lysates from the glioblastoma cell line LN428, which is known to express high levels of CXCR4; endogenous in cells; host or cells: LN428 GBM cell line
Chain of CXCR4 (P61073 whole entry): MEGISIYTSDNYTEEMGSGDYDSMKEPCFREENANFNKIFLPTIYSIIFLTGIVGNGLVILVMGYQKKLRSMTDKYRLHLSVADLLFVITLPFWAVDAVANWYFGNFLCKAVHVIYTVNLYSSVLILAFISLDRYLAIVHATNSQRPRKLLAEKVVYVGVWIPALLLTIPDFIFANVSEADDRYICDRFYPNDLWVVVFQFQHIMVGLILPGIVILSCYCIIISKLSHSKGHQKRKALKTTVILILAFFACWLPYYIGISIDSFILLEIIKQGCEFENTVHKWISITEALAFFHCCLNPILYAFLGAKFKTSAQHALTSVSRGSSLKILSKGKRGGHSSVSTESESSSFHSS
Description: Cell Culture, transfections and stimulation of CXCR4 phosphorylation. The U87 glioblastoma multiforme (GBM, grade IV) cell line was obtained from the American Type Culture Collection. The LN428 GBM cell line was a kind gift of Dr Erwin van Meir (Winship Cancer Center, Emory University, Atlanta, Ga.). U87 cells were grown in minimum essential a media supplemented with 10% fetal bovine serum ((FBS), Biomedia, Foster City, Calif.). LN428 cells were grown in DMEM (Fisher, Pittsburgh, Pa.) supplemented with 10% horse serum (Sigma). All cells were grown in the presence of penicillin-streptomycin. The coding sequence for human CXCR4 was obtained by high fidelity RT-PCR (Superscript III Platinum, Invitrogen), and cloned into the expression vector pMSCVneo (Clontech, Palo Alto, Calif.). Transfections were performed with 0.3 μg of plasmid DNA in 20 μl Lipofectamine (Invitrogen)/35 mm^2 tissue culture dish for 9 hours according to the manufacturer's instructions. Cells recovered in Optimem supplemented with 10% FBS. Transfected and non-transfected cells were placed in serum free media for 24 hours prior to treatment with agents to stimulate CXCR4 phosphorylation. Treatment was usually for 0 or 10 minutes with 1 μg/ml CXCL12 (Peprotech, Rocky Hill N.J.), 4 μM 4-Phorbol 12-myristate 13-acetate (PMA) or 10 nM EGF. In some experiments, CXCL12 was washed away and cells were incubated for an additional 20 minutes in serum free media alone.
Western Blot Analysis. Whole-cell extracts were obtained by lysing cells with lysis buffer (20 mM Tris pH 7.4, 137 mM NaCl, 10% Glycerol and 1% Triton X-100) supplemented with phosphatase inhibitor cocktail set II (Calbiochem, La Jolla, Calif.) and protease inhibitors PMSF (1 mM), leupeptin (0.005 mg/ml) and aprotonin (0.005 mg/ml). The proteins (50-75 μg) were resolved with 10% Bis-Tris gels (Invitrogen) and transferred onto the nitrocellulose membrane Hybond ECL (Amersham, Piscataway, N.J.) according to standard protocols. Polyclonal anti-CXCR4 antibody was used at a 1:500 dilution and P338-CXCR4 and P339-CXCR4 directed antibodies were used at 1:100 dilutions overnight at 4° C. This was followed by incubation with horseradish peroxidase-conjugated secondary antibody (1:15,000; Bio-Rad). Peroxide activity was detected using the enhanced chemiluminescence Supersignal West Dura system (Pierce, Rockford, Ill.). Mouse anti-actin antibody at a concentration of 1:1500 was used as a loading control. Peptide competitions and lambda phosphatase treatment were performed as described above.
The utility of these antibodies for evaluating the relationship between ligand binding and CXCR4 function is dependent upon their ability to distinguish a ligand activated form of the receptor. Serum starvation increased CXCL12 responsiveness (data not shown), and for all of these experiments LN428 GBM cells were serum starved for 24 hours prior to CXCL12 treatment. Serum starved LN428 cells were treated with 1 μg/ml CXCL12 for 0 or 10 minutes and the abundance of phospho-CXCR4 was determined by western blot and immuno-localization in fixed cells. […] A similar CXCL12-induced increase in P339-CXCR4 (FIG. 3B), but not P338-CXCR4 (data not shown) immunoreactivity was seen by immunofluorescent analysis of paraformaldehyde fixed cells. After 10 minutes of exposure to CXCL12, P339-CXCR4 can be seen localized to the surface of LN428 cells (FIG. 3B). CXCL12 was then washed away and cells were incubated in its absence for an additional 20 minutes. Surface labeling declined as a function of time and P339-CXCR4 was seen accumulating intracellularly.
Whether this is the only kinase that can phosphorylate these residues is unclear. The observation that protein kinase C (PKC) stimulated CXCR4 internalization also depends upon phosphorylation of this region of the molecule raises the question of whether these sites might also be PKC phosphorylation sites (17, 19, 27, 28). […]

Nf1+/+ astrocytes = experiment: Cell number by trypan blue exclusion, Nf1+/+ astrocytes; assay type: cell-based, mouse; conditions: CXCL12 0.1 ug/ml (≈10 nM), 24 hours, vs untreated controls
Description: Culture and treatment of primary astrocytes. Primary cultures of astrocytes were prepared from post-natal day two Nf1^flox/flox mice as previously described (134) and in accordance with established Animal Studies Protocols at Washington University School of Medicine. Cultures were infected with adenovirus containing either Cre recombinase (Nf1−/−) or LacZ (Nf1+/+). Primary cultures of astrocytes were grown under standard adherent conditions in serum free media (DMEM/F12 or Neurobasal (Gibco-BRL)) in the presence or absence of 0.1 μg/ml CXCL12 (Peprotech) and 10 μM Forskolin for 24 hours, as indicated. Cell number was determined after 24 hours by trypan blue exclusion and the growth effects of CXCL12 were derived as follows: ((cell number in the presence of CXCL12—cell number cell in the absence of CXCL12)/cell number in the absence of CXCL12)×100.)
To determine the biological significance of CXCR4 activation to NF1 glioma biology, we next sought to evaluate the regulation of CXCL12 growth effects by neurofibromin in astrocytes. While the true cell of origin of astrocytomas remains unknown, we utilized primary cultures of cortical astrocytes as a model of a normal counterpart to astrocytoma cells. Astrocytes were derived from Nf1^flox/flox mice and rendered Nf1+/+ or Nf1−/− by infection with adenovirus encoding LacZ or Cre recombinase, respectively.

[2] = 1 μg/ml CXCL12, 4 μM PMA or 10 nM EGF

P338 phosphorylation stimulated (CXCR4; [2]): not
P339 phosphorylation (CXCR4; [2]): stimulated
P338-CXCR4 levels after treatment (CXCR4; 1 μg/ml CXCL12, 10 minutes, serum starved LN428 cells): unaffected
Substance: CXCL12: chemokine ligand of CXCR4 (Peprotech)
effect on cell number [1]: no longer any benefit
decrease in cell number (Nf1+/+ astrocytes): 10+/−5%
